In this assay the target is T1, Alexa488 conjugated human CD5 protein (human, UniProt P06127 25-372, limits assumed, Alexa488 conjugated (site not stated)).
T1 sequence (looked up): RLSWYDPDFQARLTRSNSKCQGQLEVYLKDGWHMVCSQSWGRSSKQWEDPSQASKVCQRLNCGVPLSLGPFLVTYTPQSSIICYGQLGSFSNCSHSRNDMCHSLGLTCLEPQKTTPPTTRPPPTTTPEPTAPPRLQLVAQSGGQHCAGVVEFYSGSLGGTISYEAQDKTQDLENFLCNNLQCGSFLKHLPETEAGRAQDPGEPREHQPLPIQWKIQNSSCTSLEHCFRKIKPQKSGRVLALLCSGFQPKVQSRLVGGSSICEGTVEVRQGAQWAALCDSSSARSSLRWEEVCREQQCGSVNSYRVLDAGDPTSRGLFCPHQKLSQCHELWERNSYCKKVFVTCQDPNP
In words: flow cytometry, labelled soluble CD5 on electroporated CD14+ monocytes, 24, 48 and 72 hours post thaw. A general note: A flow cytometer gives signals particle by particle.

B1: CD5-CAR (anti-CD5 chimeric antigen receptor on electroporated CD14+ monocytes, Example 15) (receptor, not shown: small tags and cut ends)
chain: EIQLVQSGGGLVKPGGSVRISCAASGYTFTNYGMNWVRQAPGKGLEWMGWINTHTGEPTYADSFKGRFTFSLDDSKNTAYLQINSLRAEDTAVYFCTRRGYDWYFDVWGQGTTVTVSSGGGGSGGGGSGGGGSDIQMTQSPSSLSASVGDRVTITCRASQDINSYLSWFQQKPGKAPKTLIYRANRLESGVPSRFSGSGSGTDYTLTISSLQYEDFGIYYCQQYDESPWTFGGGTKLEIK
notes: also called CD5-CAR monocytes
B1: the binding result is “binds”.
